Patent US20230295308A1, “ANTAGONISTIC BIPARATOPIC ANTIBODIES THAT SPECIFICALLY BIND FIBROBLAST GROWTH FACTOR RECEPTOR 2 AND METHODS OF USING SAME” (The Broad Institute, Inc., priority 2020, published 2023)

What was measured:
[1] = target: FGFR2b alpha IIIb antigen (UniProt P21802); experiment: SPR (Biacore), antibody immobilized, FGFR2b alpha IIIb in flow
[2] = target: FGFR2 on SNU-16 gastric cancer cell line with FGFR2 amplification (UniProt P21802); experiment: FACS on SNU-16 cells, % No. of cells with FITC+
[3] = tested on: BaF3 cells overexpressing FGFR2-PHGDH; experiment: combination of BGJ398 and anti-FGFR2 bivalent antibody, isobolograms and Loewe scores (FIGS. 14, 15); assay type: cell-based; settings: presence of FGF10, treated for 5 days
Source text: FIGS. 14B-14D provide isobolograms showing synergy between FGFR inhibitor and the anti-[…] bivalent antibody on the different days and supporting the results shown in FIG. 14A. FIG. 14B corresponds to 3 days after treatment with the BGJ398 inhibitor; FIG. 14C corresponds to 4 days after treatment with the BGJ398 inhibitor; and FIG. 14D corresponds to 5 days after treatment with the BGJ398 inhibitor. FIG. 14E provide Loewe scores showing synergy between the FGFR inhibitor and the anti-FGF2 bivalent antibody on the different days and supporting the results shown in FIG. 14A.
FIG. 15A presents charts showing synergy between the FGFR2 small molecule inhibitor BGJ398 and an anti-FGFR2 bivalent antibody (Antibody D) in the presence of FGF ligand (+FGF) in a cell-based assay using BaF3 cells overexpressing an FGFR2 fusion molecule (FGFR2-PHGDH) after 3, 4 and 5 days of treatment with the inhibitor and the antibody. […] FIGS. 15B-15D provide isobolograms showing synergy between the FGFR inhibitor and the anti-FGF2 bivalent antibody on the different days and supporting the results shown in FIG. 15A. FIG. 15B corresponds to 3 days after treatment with the BGJ398 inhibitor; FIG. 15C corresponds to 4 days after treatment with the BGJ398 inhibitor; and FIG. 15D corresponds to 5 days after treatment with the BGJ398 inhibitor. […]

[4] = target: FGFR2 on SNU-16 gastric cancer cell line with FGFR2 amplification (UniProt P21802); experiment: FACS on SNU-16 cells, % cells with FITC+ [cont.]
[5] = target: FGFR2b alpha IIIb antigen (UniProt P21802); experiment: SPR (Biacore), antibody on chip, FGFR2b alpha IIIb antigen
[6] = target: T1, FGFR2 receptor dimerization (Homo sapiens, UniProt P21802); experiment: NANOBIT assay of FGFR2 dimerization; assay type: cell-based; settings: increasing antibody concentrations, cells stably expressing FGFR2
T1 construct: expressed in transfected cells
Source text: FIG. 16A-16F provide schematic illustrations, blots and graphs related to the development of a NANOBIT® assay to measure FGFR2 dimerization. Such an assay is used to screen biparatopic screening for their ability to disrupt FGFR2 dimerization. […] The protein interactions bring the subunits into close proximity to form a functional enzyme that generates a bright, luminescent signal. (FIG. 16B). […] FIG. 16E presents a graph of the results of the NANOBIT® assay using NANOBIT® constructs with or without FGF10 ligand. […] As shown in the graph on the left side of FIG. 16F, certain of the antibodies A-F inhibited the growth of BaF3 cells stably overexpressing FGFR2 (FGFR2IIIb). Antibody D was used in the NANOBIT® assay (graph on the right of FIG. 16F). In the rightmost graph in FIG. 16F, the fold luminescence resulting from FGFR2 WT (wild type) in the assay is represented by the left bar in each set of three bars; the fold luminescence resulting from FGFR2+FGF10 ligand in the assay is represented by the middle bar in each set of three bars; and the fold luminescence resulting from +/−FGF10 ligand difference in the assay is represented by the right bar in each set of three bars shown in FIG. 16F.
A NANOBIT® assay was developed to measure FGFR2 dimerization in cells, and in particular to screen for biparatopic antibodies that were able to disrupt FGFR2 dimerization. […]

[7] = target: FGFR2 on SNU-16 gastric cancer cell line with FGFR2 amplification (UniProt P21802); experiment: row 'Kd (nM) (FACS)'; FACS on SNU-16 cells

T1 sequence (P21802 22-822 isoform P21802-3 limits assumed): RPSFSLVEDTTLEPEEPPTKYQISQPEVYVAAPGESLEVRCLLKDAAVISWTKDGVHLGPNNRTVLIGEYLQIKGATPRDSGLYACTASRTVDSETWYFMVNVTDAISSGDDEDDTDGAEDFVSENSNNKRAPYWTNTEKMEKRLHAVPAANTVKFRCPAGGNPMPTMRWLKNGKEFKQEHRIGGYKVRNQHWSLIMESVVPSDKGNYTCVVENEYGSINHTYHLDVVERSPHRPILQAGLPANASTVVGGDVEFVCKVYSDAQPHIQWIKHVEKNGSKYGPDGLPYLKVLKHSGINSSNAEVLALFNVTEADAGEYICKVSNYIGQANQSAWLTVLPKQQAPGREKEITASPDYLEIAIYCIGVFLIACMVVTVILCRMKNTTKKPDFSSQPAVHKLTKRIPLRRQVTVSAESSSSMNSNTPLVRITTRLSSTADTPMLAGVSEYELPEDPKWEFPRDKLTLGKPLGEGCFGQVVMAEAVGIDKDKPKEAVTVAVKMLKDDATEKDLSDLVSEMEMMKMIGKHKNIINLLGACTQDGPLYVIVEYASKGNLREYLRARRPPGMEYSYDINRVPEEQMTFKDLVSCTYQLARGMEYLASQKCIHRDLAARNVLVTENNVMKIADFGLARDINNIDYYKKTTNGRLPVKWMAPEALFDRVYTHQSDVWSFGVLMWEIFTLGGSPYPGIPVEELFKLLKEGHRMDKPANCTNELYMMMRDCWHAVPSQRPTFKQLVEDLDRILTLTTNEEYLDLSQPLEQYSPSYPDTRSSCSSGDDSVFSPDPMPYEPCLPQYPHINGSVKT
T1 sequence (P21802 22-822 isoform P21802-3 limits assumed): as above

B1: 2B 1.3.12 (antibody, V domains shown)
VH: EVQLVESGGGLVQPGGSLRLSCAASGFPFTSTGISWVRQAPGKGLEWVGRTHLGDGSTNYADSVKGRFTISADTSKNTAYLQMNSLRAEDTAVYYCARTYGIYDTYDMYTEYVMDYWGQGTLVTVSS
VL: DIQMTQSPSSLSASVGDRVTITCRASQDVDTSLAWYKQKPGKAPKLLIYSASFLYSGVPSRFSGSGSGTDFTLTISSLQPEDFATYYCQQSTGHPQTFGQGTKVEIK
notes: the duobody scheme implies IgG1 with K409R or F405L; also called Antibody D; GE
- Binding Stoichiometry [1]: 1.9
- EC50 (read off the curve) [2]: 0.3 µg/mL
- synergy with BGJ398 in inhibiting FGFR2-PHGDH driven BaF3 cell growth [3]: synergizes
- EC50 (read off the curve) [4]: 0.3 µg/mL
- Kd [5]: 0.99 nM
- blocking of FGF-induced dimerization of the FGFR2 receptor [6]: blocks
- Kd [7]: 1.78 nM
